From patent US20260242735A1 (UNIVERSIT T BASEL, published 2026)

Key:
[1] = target: human CD33 extracellular region Y50R (human, UniProt P20138 18-259); assay: BLI Octet, IgG captured on AHC, CD33 analyte;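 note: CD33 variants and wild type run as analyte at 5, 50 and 500 nM, 700 s association then 1200 s dissociation, buffer-only reference subtracted, global 1:1 fit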
Protocol: (§1) Human CD33 wt and variants, were used as analyte at 3 different concentrations (500, 50 and 5 nM). Association of the analyte to the antibodies was monitored for 700 s and dissociation of the analyte from the antibodies was monitored for 1200 s. Reference subtraction was performed against buffer only wells. AHC tips were regenerated using 10 mM Glycine-HCl pH 1.7. Data were analyzed with Octet Data Analysis software HT 12.0. Data were fitted to a 1:1 binding model. Kinetic rates ka and kd and response signal were globally fitted.

[2] = target: human CD33 extracellular region F21S_W22R (human, UniProt P20138 23-259); assay: BLI Octet, IgG captured on AHC, CD33 analyte;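 note: CD33 variants and wild type run as analyte at 5, 50 and 500 nM, 700 s association then 1200 s dissociation, buffer-only reference subtracted, global 1:1 fit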
human CD33 extracellular region F21S_W22R, sequence (P20138 other isoform, or with tags, fused parts or gaps F21S W22R F21S W22R): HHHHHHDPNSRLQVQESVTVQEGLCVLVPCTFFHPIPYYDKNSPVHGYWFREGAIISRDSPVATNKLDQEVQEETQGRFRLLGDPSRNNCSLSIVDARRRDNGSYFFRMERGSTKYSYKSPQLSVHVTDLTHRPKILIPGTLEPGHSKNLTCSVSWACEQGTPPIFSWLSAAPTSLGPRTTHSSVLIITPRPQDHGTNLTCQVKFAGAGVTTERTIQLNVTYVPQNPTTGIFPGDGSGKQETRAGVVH
Protocol: as §1

[3] = target: human CD33 extracellular region N20K (human, UniProt P20138 21-259); assay: BLI Octet, IgG captured on AHC, CD33 analyte;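 note: CD33 variants and wild type run as analyte at 5, 50 and 500 nM, 700 s association then 1200 s dissociation, buffer-only reference subtracted, global 1:1 fit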
Protocol: as §1

[4] = target: human CD33 extracellular region Q24R (human, UniProt P20138 18-259); assay: BLI Octet, IgG captured on AHC, CD33 analyte;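 note: CD33 variants and wild type run as analyte at 5, 50 and 500 nM, 700 s association then 1200 s dissociation, buffer-only reference subtracted, global 1:1 fit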
human CD33 extracellular region Q24R, sequence (P20138 other isoform, or with tags, fused parts or gaps Q24R Q24R): as the sequence (P20138 other isoform, or with tags, fused parts or gaps F21S W22R F21S W22R) above, with S10F, R11W, Q13R counted along it
Protocol: as §1

[5] = target: human CD33 extracellular region Y50E (human, UniProt P20138 18-259); assay: BLI Octet, IgG captured on AHC, CD33 analyte
human CD33 extracellular region Y50E, sequence (P20138 other isoform, or with tags, fused parts or gaps Y50E Y50E): as the sequence (P20138 other isoform, or with tags, fused parts or gaps F21S W22R F21S W22R) above, with S10F, R11W, Y39E counted along it
Protocol: as §1

[6] = target: human CD33 extracellular region W22S (human, UniProt P20138 18-259); assay: BLI Octet, IgG captured on AHC, CD33 analyte
human CD33 extracellular region W22S, sequence (P20138 other isoform, or with tags, fused parts or gaps W22S W22S): as the sequence (P20138 other isoform, or with tags, fused parts or gaps F21S W22R F21S W22R) above, with S10F, R11S counted along it
Protocol: as §1

[7] = target: human CD33 extracellular region F21Q (human, UniProt P20138 22-259); assay: BLI Octet, IgG captured on AHC, CD33 analyte
Protocol: as §1

[8] = target: human CD33 extracellular region Y50L (human, UniProt P20138 18-259); assay: BLI Octet, IgG captured on AHC, CD33 analyte
Protocol: as §1

[9] = target: human CD33 extracellular region P48F (human, UniProt P20138 18-259); assay: BLI Octet, IgG captured on AHC, CD33 analyte
human CD33 extracellular region P48F, sequence (P20138 other isoform, or with tags, fused parts or gaps P48F P48F): as the sequence (P20138 other isoform, or with tags, fused parts or gaps F21S W22R F21S W22R) above, with S10F, R11W, P37F counted along it
Protocol: as §1

[10] = target: human CD33 extracellular region F43S (human, UniProt P20138 18-259); assay: BLI Octet, IgG captured on AHC, CD33 analyte
human CD33 extracellular region F43S, sequence (P20138 other isoform, or with tags, fused parts or gaps F43S F43S): as the sequence (P20138 other isoform, or with tags, fused parts or gaps F21S W22R F21S W22R) above, with S10F, R11W, F32S counted along it
Protocol: as §1

[11] = target: human CD33 extracellular region N20H (human, UniProt P20138 21-259); assay: BLI Octet, IgG captured on AHC, CD33 analyte
Protocol: as §1

[12] = target: human CD33 extracellular region W22R (human, UniProt P20138 18-259); assay: BLI Octet, IgG captured on AHC, CD33 analyte
Protocol: as §1

[13] = target: human CD33 extracellular region R119A (human, UniProt P20138 18-259); assay: BLI Octet, IgG captured on AHC, CD33 analyte
human CD33 extracellular region R119A, sequence (P20138 other isoform, or with tags, fused parts or gaps R119A R119A): as the sequence (P20138 other isoform, or with tags, fused parts or gaps F21S W22R F21S W22R) above, with S10F, R11W, R108A counted along it
Protocol: as §1

[14] = target: human CD33 extracellular region W22H (human, UniProt P20138 18-259); assay: BLI Octet, IgG captured on AHC, CD33 analyte
human CD33 extracellular region W22H, sequence (P20138 other isoform, or with tags, fused parts or gaps W22H W22H): as the sequence (P20138 other isoform, or with tags, fused parts or gaps F21S W22R F21S W22R) above, with S10F, R11H counted along it
Protocol: as §1

[15] = target: human CD33 extracellular region N20G (human, UniProt P20138 21-259); assay: BLI Octet, IgG captured on AHC, CD33 analyte
human CD33 extracellular region N20G, sequence (P20138 other isoform, or with tags, fused parts or gaps N20G N20G): as the sequence (P20138 other isoform, or with tags, fused parts or gaps F21S W22R F21S W22R) above, with N9G, S10F, R11W counted along it
Protocol: as §1

[16] = target: human CD33 extracellular region W22D (human, UniProt P20138 18-259); assay: BLI Octet, IgG captured on AHC, CD33 analyte
human CD33 extracellular region W22D, sequence (P20138 other isoform, or with tags, fused parts or gaps W22D W22D): as the sequence (P20138 other isoform, or with tags, fused parts or gaps F21S W22R F21S W22R) above, with S10F, R11D counted along it
Protocol: as §1

[17] = target: human CD33 extracellular region N20V (human, UniProt P20138 21-259); assay: BLI Octet, IgG captured on AHC, CD33 analyte
human CD33 extracellular region N20V, sequence (P20138 other isoform, or with tags, fused parts or gaps N20V N20V): as the sequence (P20138 other isoform, or with tags, fused parts or gaps F21S W22R F21S W22R) above, with N9V, S10F, R11W counted along it
Protocol: as §1

[18] = target: human CD33 extracellular region W22T (human, UniProt P20138 18-259); assay: BLI Octet, IgG captured on AHC, CD33 analyte
Protocol: as §1

[19] = target: human CD33 extracellular region H45Y (human, UniProt P20138 18-259); assay: BLI Octet, IgG captured on AHC, CD33 analyte
human CD33 extracellular region H45Y, sequence (P20138 other isoform, or with tags, fused parts or gaps H45Y H45Y): as the sequence (P20138 other isoform, or with tags, fused parts or gaps F21S W22R F21S W22R) above, with S10F, R11W, H34Y counted along it
Protocol: as §1

[20] = target: human CD33 extracellular region Y50S (human, UniProt P20138 18-259); assay: BLI Octet, IgG captured on AHC, CD33 analyte
human CD33 extracellular region Y50S, sequence (P20138 other isoform, or with tags, fused parts or gaps Y50S Y50S): as the sequence (P20138 other isoform, or with tags, fused parts or gaps F21S W22R F21S W22R) above, with S10F, R11W, Y39S counted along it
Protocol: as §1

[21] = target: human CD33 extracellular region W22K (human, UniProt P20138 18-259); assay: BLI Octet, IgG captured on AHC, CD33 analyte
Protocol: as §1

[22] = target: human CD33 extracellular region Y50D (human, UniProt P20138 18-259); assay: BLI Octet, IgG captured on AHC, CD33 analyte
human CD33 extracellular region Y50D, sequence (P20138 other isoform, or with tags, fused parts or gaps Y50D Y50D): as the sequence (P20138 other isoform, or with tags, fused parts or gaps F21S W22R F21S W22R) above, with S10F, R11W, Y39D counted along it
Protocol: as §1

[23] = target: human CD33 extracellular region F21M (human, UniProt P20138 22-259); assay: BLI Octet, IgG captured on AHC, CD33 analyte
Protocol: as §1

[24] = target: human CD33 extracellular region N20S (human, UniProt P20138 21-259); assay: BLI Octet, IgG captured on AHC, CD33 analyte
human CD33 extracellular region N20S, sequence (P20138 other isoform, or with tags, fused parts or gaps N20S N20S): as the sequence (P20138 other isoform, or with tags, fused parts or gaps F21S W22R F21S W22R) above, with N9S, S10F, R11W counted along it
Protocol: as §1

[25] = target: human CD33 extracellular region W22E (human, UniProt P20138 18-259); assay: BLI Octet, IgG captured on AHC, CD33 analyte
human CD33 extracellular region W22E, sequence (P20138 other isoform, or with tags, fused parts or gaps W22E W22E): as the sequence (P20138 other isoform, or with tags, fused parts or gaps F21S W22R F21S W22R) above, with S10F, R11E counted along it
Protocol: as §1

[26] = target: human CD33 extracellular region N20D (human, UniProt P20138 21-259); assay: BLI Octet, IgG captured on AHC, CD33 analyte
human CD33 extracellular region N20D, sequence (P20138 other isoform, or with tags, fused parts or gaps N20D N20D): as the sequence (P20138 other isoform, or with tags, fused parts or gaps F21S W22R F21S W22R) above, with N9D, S10F, R11W counted along it
Protocol: as §1

[27] = target: human CD33 extracellular region F21N (human, UniProt P20138 22-259); assay: BLI Octet, IgG captured on AHC, CD33 analyte
human CD33 extracellular region F21N, sequence (P20138 other isoform, or with tags, fused parts or gaps F21N F21N): as the sequence (P20138 other isoform, or with tags, fused parts or gaps F21S W22R F21S W22R) above, with S10N, R11W counted along it
Protocol: as §1

human CD33 T302A = human CD33 T302A (human, UniProt P20138 18-364); assay: alanine scan, flow cytometry, HEK293-T;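 note: antibody binding to each alanine-substituted CD33 mutant expressed transiently in HEK293-T, read as fluorescence minus background, mean of duplicates, relative to wild-type CD33 set as 100%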

human CD33 extracellular region Y50R, sequence (P20138 other isoform, or with tags, fused parts or gaps Y50R Y50R): as the sequence (P20138 other isoform, or with tags, fused parts or gaps F21S W22R F21S W22R) above, with S10F, R11W, Y39R counted along it

B1: Refmab #3 (antibody, human IgG1, V domains shown)
VH: QVQLVQSGAEVKKPGSSVKVSCKASGYTFTDYNMHWVRQAPGQGLEWIGYIYPYNGGTGYNQKFKSKATITADESTNTAYMELSSLRSEDTAVYYCARGRPAMDYWGQGTLVTVSS
VL: DIQMTQSPSSLSASVGDRVTITCRASESVDNYGISFMNWFQQKPGKAPKLLIYAASNQGSGVPSRFSGSGSGTDFTLTISSLQPDDFATYYCQQSKEVPWTFGQGTKVEIK
What does the source list for B1?
% WT binding [1]: 70.5%; % WT binding [2]: 0%; % WT binding [3]: 0%; % WT binding [4]: 88.4%; % WT binding [5]: 120%; % WT binding [6]: 20.1%; % WT binding [7]: 0%; % WT binding [8]: 74.4%; % WT binding [9]: 74.3%; % WT binding [10]: 64.8%; % WT binding [11]: 0%; % WT binding [12]: 0%; % WT binding [13]: 118%; % WT binding [14]: 55%; % WT binding [15]: 0%; % WT binding [16]: 0%; % WT binding [17]: 6.34%; % WT binding [18]: 3.39%; % WT binding [19]: 35.1%; % WT binding [20]: 70.9%; % WT binding [21]: 0%; % WT binding [22]: 71%; % WT binding [23]: 0%; % WT binding [24]: 34.4%; % WT binding [25]: 0%; % WT binding [26]: 0%; % WT binding [27]: 0%

B2: Refmab #1 (antibody, human IgG1, V domains shown)
VH: EVQLVQSGAEVKKPGSSVKVSCKASGYTITDSNIHWVRQAPGQSLEWIGYIYPYNGGTDYNQKFKNRATLTVDNPTNTAYMELSSLRSEDTAFYYCVNGNPWLAYWGQGTLVTVSS
VL: DIQLTQSPSTLSASVGDRVTITCRASESLDNYGIRFLTWFQQKPGKAPKLLMYAASNQGSGVPSRFSGSGSGTEFTLTISSLQPDDFATYYCQQTKEVPWSFGQGTKVEVK
notes: also called hP67.6; Absolute Antibody Cat. No. Ab00283-10.0
How did the “% WT binding” value [1] turn out when B2 was run?
Its value is 73.3%.

What about the “% WT binding” value [2] of the same binder?
The value was 0%.

What about the “% WT binding” value [3] of the same binder?
The value was 0%.

What about the “% WT binding” value [4] of the same binder?
Its value is 67.9%.

What about the “% WT binding” value [5] of the same binder?
The value was 101%.

What about the “% WT binding” value [6] of the same binder?
The value was 45.9%.

And the “% WT binding” value [7]?
Its value is 0%.

And the “% WT binding” value [8]?
The value was 76.1%.

What about the “% WT binding” value [9] of the same binder?
Its value is 76.2%.

What about the “% WT binding” value [10] of the same binder?
The value was 104%.

And the “% WT binding” value [11]?
Its value is 67%.

What about the “% WT binding” value [12] of the same binder?
Its value is 26.4%.

And the “% WT binding” value [13]?
Its value is 121%.

What about the “% WT binding” value [14] of the same binder?
The value was 106%.

And the “% WT binding” value [15]?
Its value is 0%.

What about the “% WT binding” value [16] of the same binder?
The value was 0%.

And the “% WT binding” value [17]?
The value was 18.6%.

What about the “% WT binding” value [18] of the same binder?
The value was 15%.

What about the “% WT binding” value [19] of the same binder?
Its value is 55%.

And the “% WT binding” value [20]?
The value was 75.5%.

What about the “% WT binding” value [21] of the same binder?
The value was 0%.

And the “% WT binding” value [22]?
The value was 71.5%.

And the “% WT binding” value [23]?
The value was 0%.

What about the “% WT binding” value [24] of the same binder?
The value was 37.8%.

And the “% WT binding” value [25]?
Its value is 26.4%.

And the “% WT binding” value [26]?
The value was 0%.

What about the “% WT binding” value [27] of the same binder?
Its value is 0%.

B3: Refmab #4 (antibody, V domains shown)
VH: QVQLVQSGAEVKKPGESVKVSCKASGYTFTNYGMNWVKQAPGQGLEWMGWINTYTGEPTYADKFQGRVTMTTDTSTSTAYMEIRNLGGDDTAVYYCARWSWSDGYYVYFDYWGQGTSVTVSS
VL: DIVMTQSPDSLTVSLGERTTINCKSSQSVLDSSTNKNSLAWYQQKPGQPPKLLLSWASTRESGIPDRFSGSGSGTDFTLTIDSPQPEDSATYYCQQSAHFPITFGQGTRLEIK
notes: The alanine scan used IgG or Fab
For B3, which “Mean % WT Binding” value (human CD33 T302A) is on record?
Its value is 98.2 % WT binding.

B4: Refmab #4 (antibody, human IgG1, V domains shown)
VH: QVQLVQSGAEVKKPGESVKVSCKASGYTFTNYGMNWVKQAPGQGLEWMGWINTYTGEPTYADKFQGRVTMTTDTSTSTAYMEIRNLGGDDTAVYYCARWSWSDGYYVYFDYWGQGTSVTVSS
VL: DIVMTQSPDSLTVSLGERTTINCKSSQSVLDSSTNKNSLAWYQQKPGQPPKLLLSWASTRESGIPDRFSGSGSGTDFTLTIDSPQPEDSATYYCQQSAHFPITFGQGTRLEIK
Which “% WT binding” value [1] does the source give for B4 here?
Its value is 0%.

And the “% WT binding” value [2]?
The value was 110%.

And the “% WT binding” value [3]?
The value was 102%.

And the “% WT binding” value [4]?
Its value is 102%.

What about the “% WT binding” value [5] of the same binder?
The value was 16%.

And the “% WT binding” value [6]?
Its value is 93%.

What about the “% WT binding” value [7] of the same binder?
Its value is 89%.

And the “% WT binding” value [8]?
The value was 25.3%.

What about the “% WT binding” value [9] of the same binder?
Its value is 9.11%.

What about the “% WT binding” value [10] of the same binder?
The value was 80%.

What about the “% WT binding” value [11] of the same binder?
The value was 104%.

What about the “% WT binding” value [12] of the same binder?
Its value is 82.8%.

And the “% WT binding” value [13]?
Its value is 95%.

And the “% WT binding” value [14]?
The value was 112%.

And the “% WT binding” value [15]?
Its value is 115%.

And the “% WT binding” value [16]?
The value was 104%.

What about the “% WT binding” value [17] of the same binder?
Its value is 96.5%.

What about the “% WT binding” value [18] of the same binder?
The value was 87.9%.

And the “% WT binding” value [19]?
The value was 69.3%.

What about the “% WT binding” value [20] of the same binder?
The value was 22.6%.

What about the “% WT binding” value [21] of the same binder?
The value was 113%.

And the “% WT binding” value [22]?
Its value is 0%.

What about the “% WT binding” value [23] of the same binder?
The value was 80%.

What about the “% WT binding” value [24] of the same binder?
Its value is 84.1%.

What about the “% WT binding” value [25] of the same binder?
Its value is 82.8%.

What about the “% WT binding” value [26] of the same binder?
The value was 91.3%.

What about the “% WT binding” value [27] of the same binder?
The value was 83%.
